Results: PMC2726290, “Decoding of Methylated Histone H3 Tail by the Pygo-BCL9 Wnt Signaling Complex” (Molecular Cell, 2008)
Positions count from the first letter of the chain named.

B1: H3K4me2 9-mer histone H3 tail peptide (peptide, UniProt P68431 2-10, looked up)
peptide: ARTKQTARK
modifications: dimethyl-lysine at K4
notes: histone H3 tail, 9-mer; the limits follow from the truncated form 'spanning R2-K9 (without A1)'; Only the first seven residues are modelled in the structure; also called 9-mer H3K4me2 peptide
B2: H3R2me2aK4me2 18-mer histone H3 tail peptide (peptide, UniProt P68431 2-19, looked up)
peptide: ARTKQTARKSTGGKAPRK
modifications: asymmetric dimethyl-arginine at R2 (R2me2a); dimethyl-lysine at K4
notes: histone H3 tail, 18-mer; Only the first seven residues are modelled in the structure; also called 18-mer histone H3 tail carrying both K4me2 and asymmetrically methylated R2 (R2me2a)

Key:
[1] = biological target: T1, hPHD-HD1 complex (hPygo1 PHD 333-402 with hBCL9 HD1) (human, UniProt Q9Y3Y4 333-402; O00512 177-205); experiment: ITC; protein dialysed into 100 mM NaCl, 25 mM Tris-HCl (pH 8.0), 10 uM ZnCl2, 2 mM beta-mercaptoethanol; histone peptides with free PHD or PHD-HD1 complex; one-site model; settings: both partners purified
T1 construct: PHD finger of human Pygo1, amino acids 333-402; also called binary complex; human PHD-HD1 complex; source: E. coli BL21-CodonPlus(DE3)-RIL, coexpressed from a bicistronic vector, purified as a complex; not shown: GST, N-terminal, cleaved; MBP, N-terminal, cleaved
T1 sequence (looked up) 1: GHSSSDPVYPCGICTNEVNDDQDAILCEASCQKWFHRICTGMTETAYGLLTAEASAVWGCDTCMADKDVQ
T1 sequence (looked up) 2: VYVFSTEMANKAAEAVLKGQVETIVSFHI

[2] = biological target: T2, hPygo1 PHD finger E349A (human, UniProt Q9Y3Y4 333-402, E349A); experiment: as above; settings: both partners purified
T2 construct: PHD finger of human Pygo1 with E349A; source: E. coli, purified; not shown: GST, N-terminal, cleaved
T2 sequence (looked up): T1 sequence (looked up) 1 with E17A

| Binder | Kd [1] [µM] | Kd [2] [µM] |
| --- | --- | --- |
| B1 | 11 | – |
| B2 | 2.1 | – |
| ARTKQTARKSTGGKA (peptide, UniProt P68431 2-16, looked up, trimethyl-lysine at K4, histone H3 tail, 15-mer) [H3K4me3 15-mer histone H3 tail peptide] | – | 22 |
